Measured values taken from publication doi:10.1101/2025.11.11.685192 (bioRxiv, 2025).
Values belong to the molecule of their own block, whether it stands above or below them.

What was measured:
[1] = target: gp130 V252G mutant, soluble extracellular domain (gp130 V252G ECD) (human); experiment: cryo-EM structure
[2] = target: gp130 D215G mutant, soluble extracellular domain (gp130 D215G ECD) (human); experiment: cryo-EM structure
[3] = target: gp130 S187-Y190 deletion mutant, soluble extracellular domain (gp130 ΔSY ECD) (human); experiment: SEC + SEC-MALS + native gel or EMSA
[4] = target: gp130 S187-Y190 deletion mutant, soluble extracellular domain (gp130 ΔSY ECD) (human); experiment: cryo-EM structure
[5] = target: full-length gp130 ΔSY with additional D4-D6 deletion (gp130 ΔSYΔ(D4-D6)) (human) (UniProt P40189); experiment: cryo-EM structure
[6] = target: full-length gp130 ΔSY with an additional D1 deletion (gp130 ΔSYΔD1) (human) (UniProt P40189); experiment: cryo-EM structure
native gel or EMSA = target: the molecule itself; experiment: native gel or EMSA
cryo-EM structure = target: the molecule itself; experiment: cryo-EM structure

stoichiometry N [1]: 2
Molecule: gp130 V252G mutant, soluble extracellular domain (gp130 V252G ECD) (domain or fragment)

stoichiometry N [2]: 2
Molecule: gp130 D215G mutant, soluble extracellular domain (gp130 D215G ECD) (domain or fragment)

stoichiometry N [3]: 2
stoichiometry N [4]: 2
Molecule: gp130 S187-Y190 deletion mutant, soluble extracellular domain (gp130 ΔSY ECD) (domain or fragment)

stoichiometry N [5]: 2
Molecule: full-length gp130 ΔSY with additional D4-D6 deletion (gp130 ΔSYΔ(D4-D6)) (from UniProt P40189 23-918) (receptor)

stoichiometry N [6]: 2
Molecule: full-length gp130 ΔSY with an additional D1 deletion (gp130 ΔSYΔD1) (from UniProt P40189 23-918) (receptor)

B1: full-length gp130 S187-Y190 deletion mutant (gp130 ΔSY full-length) (receptor, human, UniProt P40189 23-918, looked up)
chain: ELLDPCGYISPESPVVQLHSNFTAVCVLKEKCMDYFHVNANYIVWKTNHFTIPKEQYTIINRTASSVTFTDIASLNIQLTCNILTFGQLEQNVYGITIISGLPPEKPKNLSCIVNEGKKMRCEWDGGRETHLETNFTLKSEWATHKFADCKAKRDTPTSCTVDYFVNIEVWVEAENALGKVTSDHINFDPVYKVKPNPPHNLSVINSEELSSILKLTWTNPSIKSVIILKYNIQYRTKDASTWSQIPPEDTASTRSSFTVQDLKPFTEYVFRIRCMKEDGKGYWSDWSEEASGITYEDRPSKAPSFWYKIDPSHTQGYRTVQLVWKTLPPFEANGKILDYEVTLTRWKSHLQNYTVNATKLTVNLTNDRYLATLTVRNLVGKSDAAVLTIPACDFQATHPVMDLKAFPKDNMLWVEWTTPRESVKKYILEWCVLSDKAPCITDWQQEDGTVHRTYLRGNLAESKCYLITVTPVYADGPGSPESIKAYLKQAPPSKGPTVRTKKVGKNEAVLEWDQLPVDVQNGFIRNYTIFYRTIIGNETAVNVDSSHTEYTLSSLTSDTLYMVRMAAYTDEGGKDGPEFTFTTPKFAQGEIEAIVVPVCLAFLLTTLLGVLFCFNKRDLIKKHIWPNVPDPSKSHIAQWSPHTPPRHNFNSKDQMYSDGNFTDVSVVEIEANDKKPFPEDLKSLDLFKKEKINTEGHSSGIGGSSCMSSSRPSISSSDENESSQNTSSTVQYSTVVHSGYRHQVPSVQVFSRSESTQPLLDSEERPEDLQLVDHVDGGDGILPRQQYFKQNCSQHESSPDISHFERSKQVSSVNEEDFVRLKQQISDHISQSCGSGQMKMFQEVSAADAFGPGTEGQVERFETVGMEAATDEGMPKSYLPQTVRQGGYMPQ
stoichiometry N (native gel or EMSA): 2

B2: full-length gp130 A418-F421 deletion mutant (gp130 ΔAF) (receptor, human, UniProt P40189 23-918, looked up)
chain: ELLDPCGYISPESPVVQLHSNFTAVCVLKEKCMDYFHVNANYIVWKTNHFTIPKEQYTIINRTASSVTFTDIASLNIQLTCNILTFGQLEQNVYGITIISGLPPEKPKNLSCIVNEGKKMRCEWDGGRETHLETNFTLKSEWATHKFADCKAKRDTPTSCTVDYSTVYFVNIEVWVEAENALGKVTSDHINFDPVYKVKPNPPHNLSVINSEELSSILKLTWTNPSIKSVIILKYNIQYRTKDASTWSQIPPEDTASTRSSFTVQDLKPFTEYVFRIRCMKEDGKGYWSDWSEEASGITYEDRPSKAPSFWYKIDPSHTQGYRTVQLVWKTLPPFEANGKILDYEVTLTRWKSHLQNYTVNATKLTVNLTNDRYLATLTVRNLVGKSDAAVLTIPQATHPVMDLKAFPKDNMLWVEWTTPRESVKKYILEWCVLSDKAPCITDWQQEDGTVHRTYLRGNLAESKCYLITVTPVYADGPGSPESIKAYLKQAPPSKGPTVRTKKVGKNEAVLEWDQLPVDVQNGFIRNYTIFYRTIIGNETAVNVDSSHTEYTLSSLTSDTLYMVRMAAYTDEGGKDGPEFTFTTPKFAQGEIEAIVVPVCLAFLLTTLLGVLFCFNKRDLIKKHIWPNVPDPSKSHIAQWSPHTPPRHNFNSKDQMYSDGNFTDVSVVEIEANDKKPFPEDLKSLDLFKKEKINTEGHSSGIGGSSCMSSSRPSISSSDENESSQNTSSTVQYSTVVHSGYRHQVPSVQVFSRSESTQPLLDSEERPEDLQLVDHVDGGDGILPRQQYFKQNCSQHESSPDISHFERSKQVSSVNEEDFVRLKQQISDHISQSCGSGQMKMFQEVSAADAFGPGTEGQVERFETVGMEAATDEGMPKSYLPQTVRQGGYMPQ
stoichiometry N (cryo-EM structure): 2

B3: full-length gp130 E195-V196 deletion mutant (gp130 ΔEV) (receptor, human, UniProt P40189 23-918, looked up)
chain: ELLDPCGYISPESPVVQLHSNFTAVCVLKEKCMDYFHVNANYIVWKTNHFTIPKEQYTIINRTASSVTFTDIASLNIQLTCNILTFGQLEQNVYGITIISGLPPEKPKNLSCIVNEGKKMRCEWDGGRETHLETNFTLKSEWATHKFADCKAKRDTPTSCTVDYSTVYFVNIWVEAENALGKVTSDHINFDPVYKVKPNPPHNLSVINSEELSSILKLTWTNPSIKSVIILKYNIQYRTKDASTWSQIPPEDTASTRSSFTVQDLKPFTEYVFRIRCMKEDGKGYWSDWSEEASGITYEDRPSKAPSFWYKIDPSHTQGYRTVQLVWKTLPPFEANGKILDYEVTLTRWKSHLQNYTVNATKLTVNLTNDRYLATLTVRNLVGKSDAAVLTIPACDFQATHPVMDLKAFPKDNMLWVEWTTPRESVKKYILEWCVLSDKAPCITDWQQEDGTVHRTYLRGNLAESKCYLITVTPVYADGPGSPESIKAYLKQAPPSKGPTVRTKKVGKNEAVLEWDQLPVDVQNGFIRNYTIFYRTIIGNETAVNVDSSHTEYTLSSLTSDTLYMVRMAAYTDEGGKDGPEFTFTTPKFAQGEIEAIVVPVCLAFLLTTLLGVLFCFNKRDLIKKHIWPNVPDPSKSHIAQWSPHTPPRHNFNSKDQMYSDGNFTDVSVVEIEANDKKPFPEDLKSLDLFKKEKINTEGHSSGIGGSSCMSSSRPSISSSDENESSQNTSSTVQYSTVVHSGYRHQVPSVQVFSRSESTQPLLDSEERPEDLQLVDHVDGGDGILPRQQYFKQNCSQHESSPDISHFERSKQVSSVNEEDFVRLKQQISDHISQSCGSGQMKMFQEVSAADAFGPGTEGQVERFETVGMEAATDEGMPKSYLPQTVRQGGYMPQ
stoichiometry N (cryo-EM structure): 2

B4: full-length gp130 P216H mutant (receptor, human, UniProt P40189 23-918, looked up)
chain: ELLDPCGYISPESPVVQLHSNFTAVCVLKEKCMDYFHVNANYIVWKTNHFTIPKEQYTIINRTASSVTFTDIASLNIQLTCNILTFGQLEQNVYGITIISGLPPEKPKNLSCIVNEGKKMRCEWDGGRETHLETNFTLKSEWATHKFADCKAKRDTPTSCTVDYSTVYFVNIEVWVEAENALGKVTSDHINFDHVYKVKPNPPHNLSVINSEELSSILKLTWTNPSIKSVIILKYNIQYRTKDASTWSQIPPEDTASTRSSFTVQDLKPFTEYVFRIRCMKEDGKGYWSDWSEEASGITYEDRPSKAPSFWYKIDPSHTQGYRTVQLVWKTLPPFEANGKILDYEVTLTRWKSHLQNYTVNATKLTVNLTNDRYLATLTVRNLVGKSDAAVLTIPACDFQATHPVMDLKAFPKDNMLWVEWTTPRESVKKYILEWCVLSDKAPCITDWQQEDGTVHRTYLRGNLAESKCYLITVTPVYADGPGSPESIKAYLKQAPPSKGPTVRTKKVGKNEAVLEWDQLPVDVQNGFIRNYTIFYRTIIGNETAVNVDSSHTEYTLSSLTSDTLYMVRMAAYTDEGGKDGPEFTFTTPKFAQGEIEAIVVPVCLAFLLTTLLGVLFCFNKRDLIKKHIWPNVPDPSKSHIAQWSPHTPPRHNFNSKDQMYSDGNFTDVSVVEIEANDKKPFPEDLKSLDLFKKEKINTEGHSSGIGGSSCMSSSRPSISSSDENESSQNTSSTVQYSTVVHSGYRHQVPSVQVFSRSESTQPLLDSEERPEDLQLVDHVDGGDGILPRQQYFKQNCSQHESSPDISHFERSKQVSSVNEEDFVRLKQQISDHISQSCGSGQMKMFQEVSAADAFGPGTEGQVERFETVGMEAATDEGMPKSYLPQTVRQGGYMPQ
stoichiometry N (cryo-EM structure): 2

B5: full-length gp130 K173-D177 deletion mutant (gp130 ΔKD) (receptor, human, UniProt P40189 23-918, looked up)
chain: ELLDPCGYISPESPVVQLHSNFTAVCVLKEKCMDYFHVNANYIVWKTNHFTIPKEQYTIINRTASSVTFTDIASLNIQLTCNILTFGQLEQNVYGITIISGLPPEKPKNLSCIVNEGKKMRCEWDGGRETHLETNFTLKSEWATHKFADCTPTSCTVDYSTVYFVNIEVWVEAENALGKVTSDHINFDPVYKVKPNPPHNLSVINSEELSSILKLTWTNPSIKSVIILKYNIQYRTKDASTWSQIPPEDTASTRSSFTVQDLKPFTEYVFRIRCMKEDGKGYWSDWSEEASGITYEDRPSKAPSFWYKIDPSHTQGYRTVQLVWKTLPPFEANGKILDYEVTLTRWKSHLQNYTVNATKLTVNLTNDRYLATLTVRNLVGKSDAAVLTIPACDFQATHPVMDLKAFPKDNMLWVEWTTPRESVKKYILEWCVLSDKAPCITDWQQEDGTVHRTYLRGNLAESKCYLITVTPVYADGPGSPESIKAYLKQAPPSKGPTVRTKKVGKNEAVLEWDQLPVDVQNGFIRNYTIFYRTIIGNETAVNVDSSHTEYTLSSLTSDTLYMVRMAAYTDEGGKDGPEFTFTTPKFAQGEIEAIVVPVCLAFLLTTLLGVLFCFNKRDLIKKHIWPNVPDPSKSHIAQWSPHTPPRHNFNSKDQMYSDGNFTDVSVVEIEANDKKPFPEDLKSLDLFKKEKINTEGHSSGIGGSSCMSSSRPSISSSDENESSQNTSSTVQYSTVVHSGYRHQVPSVQVFSRSESTQPLLDSEERPEDLQLVDHVDGGDGILPRQQYFKQNCSQHESSPDISHFERSKQVSSVNEEDFVRLKQQISDHISQSCGSGQMKMFQEVSAADAFGPGTEGQVERFETVGMEAATDEGMPKSYLPQTVRQGGYMPQ
stoichiometry N (cryo-EM structure): 2
